# Assay results: US20260274985A1 (MYTHIC THERAPEUTICS, published 2026)
# Residue numbers refer to the chain shown, from its start.
# T1: TROP2 on TROP2-positive NCI-H1975 cells (human, UniProt P09758 27-323)
# T1 sequence: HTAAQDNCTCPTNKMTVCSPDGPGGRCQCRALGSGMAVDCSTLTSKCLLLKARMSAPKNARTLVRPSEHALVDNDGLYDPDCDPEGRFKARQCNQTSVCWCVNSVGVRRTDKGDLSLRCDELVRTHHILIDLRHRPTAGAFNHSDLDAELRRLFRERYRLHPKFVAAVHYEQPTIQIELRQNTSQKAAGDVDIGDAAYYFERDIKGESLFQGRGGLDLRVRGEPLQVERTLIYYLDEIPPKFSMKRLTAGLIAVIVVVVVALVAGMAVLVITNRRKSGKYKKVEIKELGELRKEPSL
# T2: Human TROP2 Protein, His Tag (Acro Biosystems) (human, UniProt P09758 27-274)
# T2 construct: Bought protein; also called TACSTD2; not shown: His tag
# T2 sequence: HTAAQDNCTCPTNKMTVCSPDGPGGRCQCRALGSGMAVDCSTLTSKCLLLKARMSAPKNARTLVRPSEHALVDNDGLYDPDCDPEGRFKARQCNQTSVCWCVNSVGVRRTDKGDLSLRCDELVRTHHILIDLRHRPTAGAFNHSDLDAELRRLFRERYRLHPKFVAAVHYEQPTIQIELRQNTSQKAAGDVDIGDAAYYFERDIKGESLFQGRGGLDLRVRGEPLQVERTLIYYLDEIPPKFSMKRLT
# T3: Human TROP2 Protein, His Tag (Acro Biosystems) (human, UniProt P09758 27-274)
# T3 construct: not shown: His tag
# T3 sequence (looked up): T2 sequence
# B1: MYT12375 (antibody, human IgG1, V domains shown)
# VH: QVQLQQSGSELKKPGASVKVSCKASGYTFTNYGMNWVKQAPGQGLKWMGWINTYTGEPTYTDDFKGRFAFSLDTSVSTAYLQISSLKADDTAVYFCARGGFGSSYWYFDVWGQGSLVTVSS
# VL: DIQLTQSPSSLSASVGDRVSITCKASQDVSIAVAWYQQKPGKAPKLLIYSHSHRYTGVPDRFSGSGSGTDFTLTISSLQPEDFAVYYCQQHYHTPLTFGAGTKVEIK
# B2: MYT11682 (antibody, human IgG1, V domains shown)
# VH: QVQLVQSGAEVKKPGASVKVSCKASGYTFTTAGMQWVRQAPGQGLEWMGWINTHSGVPKYAEDFKGRVTISADTSTSTAYLQLSSLKSEDTAVYYCARSGFGSSYWYFDVWGQGTLVTVSS
# VL: B1 VL with L4M, S20T, V29H, I31T, H51A, H53Y, D60S, H93I, A100Q, V104L
# B3: MYT11766 (antibody, human IgG1, V domains shown)
# VH: QVQLQESGPGLVKPSETLSLTCTVSGGSISSYGVHWIRQPPGKGLEWIGVIWTSGVTDYNSALMGRVTISVDTSKNQFSLKLSSVTAADTAVYYCARDGDYDRYTMDYWGQGTLVTVSS
# VL: DIVMTQSPDSLAVSLGERATINCRASKSVSTSGYSYMHWYQQKPGQPPKLLIYLASNLESGVPDRFSGSGSGTDFTLTISSLQAEDVAVYYCHHSRELPYTFGQGTKLEIK
# B4: MYT11770 (antibody, human IgG1, V domains shown)
# VH: B3 VH
# VL: B3 VL with H93Q, E97H
# B5: MYT12440 (antibody, human IgG1, V domains shown)
# VH: B3 VH
# VL: B3 VL with E59H
# B6: MYT12433 (hu7E6SVG variant, HCV substitutions at 33, 56, 106) (antibody, V domains shown)
# VH: B3 VH with G33H, V56H, M106H
# VL: B3 VL with H93Q
# B7: MYT12434 (hu7E6SVG variant, HCV substitutions at 33, 103, 106) (antibody, V domains shown)
# VH: B3 VH with G33H, R103H, M106H
# VL: B3 VL with H93Q
# B8: MYT12431 (hu7E6SVG variant, HCV substitutions at 33, 51, 106) (antibody, V domains shown)
# VH: B3 VH with G33H, I51H, M106H
# VL: B3 VL with H93Q
# B9: MYT12473 (hu7E6SVG variant, LCV substitutions at 94, 97, 101 (Ala at 94)) (antibody, V domains shown)
# VH: B3 VH
# VL: B3 VL with H93Q, H94A, E97H, T101H
# notes: Full IgG in Expi293 supernatant
# B10: MYT12468 (hu7E6SVG variant, LCV substitutions at 60, 94, 101 (Ala at 94)) (antibody, V domains shown)
# VH: B3 VH
# VL: B3 VL with S60H, H93Q, H94A, T101H
# notes: as for B9
# B11: MYT13442 (antibody, V domains shown)
# VH: B3 VH with M106H
# VL: B3 VL with E59H, H93Q, H94A
# notes: Full-length IgG from Expi293 supernatant; also called hu7E6SVG heavy chain and light chain pairing variant
# B12: MYT13438 (antibody, V domains shown)
# VH: B3 VH with I51H
# VL: B3 VL with E59H, H93Q, H94A
# notes: as for B11
# B13: MYT13444 (antibody, V domains shown)
# VH: B3 VH with V56H
# VL: B3 VL with E59H, H93Q, T101H
# notes: as for B11
# B14: MYT13447 (antibody, V domains shown)
# VH: B3 VH with M106H
# VL: B3 VL with E59H, H93Q, T101H
# notes: as for B11
# B15: MYT13439 (antibody, V domains shown)
# VH: B3 VH with V56H
# VL: B3 VL with E59H, H93Q, H94A
# notes: as for B11
# B16: MYT13443 (antibody, V domains shown)
# VH: B3 VH with I51H
# VL: B3 VL with E59H, H93Q, T101H
# notes: as for B11
# B17: MYT13312 (antibody, V domains shown)
# VH: B3 VH with V56H
# VL: B3 VL with E59H, H93Q, T101H
# notes: as for B11
# B18: MYT13311 (antibody, V domains shown)
# VH: B3 VH with I51H
# VL: B3 VL with E59H, H93Q, T101H
# notes: as for B11
# B19: MYT13307 (antibody, V domains shown)
# VH: B3 VH with V56H
# VL: B3 VL with E59H, H93Q, H94A
# notes: as for B11
# B20: MYT13306 (antibody, V domains shown)
# VH: B3 VH with I51H
# VL: B3 VL with E59H, H93Q, H94A
# notes: as for B11
# B21: MYT13273 (antibody, V domains shown)
# VH: B2 VH with R98H
# VL: B1 VL with L4M, S20T, I31T, H51A, H53Y, D60S, A100Q, V104L
# notes: Full-length IgG from Expi293 supernatant; also called datopotamab heavy chain and light chain pairing variant
# B22: MYT13275 (antibody, V domains shown)
# VH: B2 VH with S104H
# VL: B1 VL with L4M, S20T, I31T, H51A, H53Y, D60S, A100Q, V104L
# notes: as for B21
# B23: MYT13267 (antibody, V domains shown)
# VH: B2 VH with S104H
# VL: B1 VL with L4M, S20T, I31T, H51A, D60S, H93I, A100Q, V104L
# notes: as for B21
# B24: MYT13274 (antibody, V domains shown)
# VH: B2 VH with F101H
# VL: B1 VL with L4M, S20T, I31T, H51A, H53Y, D60S, A100Q, V104L
# notes: as for B21
# B25: MYT13266 (antibody, V domains shown)
# VH: B2 VH with F101H
# VL: B1 VL with L4M, S20T, I31T, H51A, D60S, H93I, A100Q, V104L
# notes: as for B21
# Target: T1, TROP2 on TROP2-positive NCI-H1975 cells
# Experiment: cell-based or functional assay
row,Binder,"cytotoxicity on TROP2-positive NCI-H1975 cells (antibody complexed to secondary antibody-MMAF, cell titer glow assay)"
1,B1,~27 % greater cytotoxicity compared to WT datopotamab
2,B2,~20 % greater cytotoxicity compared to WT datopotamab
3,B3,~30 % greater cytotoxicity compared to WT datopotamab
4,B4,~30 % greater cytotoxicity compared to WT datopotamab
5,B5,~30 % greater cytotoxicity compared to WT datopotamab

# Target: T2, Human TROP2 Protein, His Tag (Acro …)
# Experiment: BLI (Octet)
row,Binder,binding result
1,B6,no binding (tested: 50 nM)
2,B7,no binding (tested: 50 nM)
3,B8,no binding (tested: 50 nM)
4,B9,no binding (tested: 50 nM)
5,B10,no binding (tested: 50 nM)

# Target: T3, Human TROP2 Protein, His Tag (Acro …)
# Experiment: BLI (Octet) [2/2]
row,Binder,binding result
1,B11,no binding (tested: 50 nM)
2,B12,no binding (tested: 50 nM)
3,B13,no binding (tested: 50 nM)
4,B14,no binding (tested: 50 nM)
5,B15,no binding (tested: 50 nM)

# Target: T3, Human TROP2 Protein, His Tag (Acro …)
# Experiment: Octet BLI: IgG supernatant on anti-human Fc sensor, 50 nM TROP2-His at pH 7.4; Octet Binding Result 3=No binding
# Description: (§1) After allowing for four days of protein expression, cell culture supernatants were collected, quantified by SDS-PAGE analysis (DNS), and the pH dependence of the variant was evaluated using biolayer interferometry (BLI) on an Octet RED 96e instrument. Briefly, cell culture supernatants were diluted based on qualitative expression level of the variant determined by visual examination of SDS-PAGE gels, 5 μL of cell culture supernatant was diluted into 195 μL of 1×PBST, pH 7.4 for high expressors, 25 μL of cell culture supernatant was diluted into 175 μL of 1×PBST, pH 7.4 for medium expressors and 100 μL of cell culture supernatant was diluted into 100 μL of 1×PBST, pH 7.4 for low expressors for loading onto the sensor tips. The resulting diluted supernatants were then captured on an anti-human Fc sensor (Forte Bio). A baseline was established using 1×PBST (50 mM Potassium Phosphate Buffer+150 mM NaCl+0.05% Tween 20) pH 7.4, and the sensor was associated with 50 nM of TROP2 (Human TROP2 Protein, His Tag, Acro Biosystems) in 1×PBST pH 7.4 for 120 sec to generate an association curve. In the dissociation phase, the antibody-antigen complex on the sensor was exposed to 1×PBST pH 7.4 or pH 5.4, for 300 sec. Association and dissociation phase curves were examined for the starting ABPC antibody (with no substitutions) and each corresponding antibody variant at pH 5.4 and pH 7.4 to inform on two criteria: a) enhanced dissociation (i.e., higher koff values) at pH 5.4 due to histidine or alanine substitution compared to the starting ABPC, (with no substitutions), and b) reduced dissociation at pH 7.4 (i.e., lower koff values) compared to pH 5.4 in the antibody variant itself and with the starting ABPC (with no substitutions). […] It was also noted that while some mutations obliterated TROP2 binding, others were tolerated with little or n change in TROP2 binding kinetics.
row,Binder,binding result
1,B16,no binding (tested: 50 nM)
2,B17,no binding (tested: 50 nM)
3,B18,no binding (tested: 50 nM)
4,B19,no binding (tested: 50 nM)
5,B20,no binding (tested: 50 nM)

# Target: T3, Human TROP2 Protein, His Tag (Acro …)
# Experiment: Octet BLI: IgG supernatant on anti-human Fc sensor, 50 nM TROP2-His at pH 7.4, dissociation at pH 7.4 or 5.4; Octet Binding Result 1=pH dependent
# Description: as §1
row,Binder,binding result
1,B21,binds
2,B22,binds
3,B23,binds
4,B24,binds
5,B25,binds
